According to article PMC4225485, “The PHD1 finger of KDM5B recognizes unmodified H3K4 during the demethylation of histone H3K4me2/3 by KDM5B” (Protein & Cell, 2014):
Residue numbers refer to the chain shown, from its start.

Legend:
[1] = target: T1, PHD1KDM5B (306–360 aa) (Homo sapiens, UniProt Q9UGL1); test: ITC binding of H3 peptides to PHD1KDM5B
T1 construct: PHDKDM5B (residues 306–360 aa); GST (N, cleaved yes); made in house
T1 sequence (Q9UGL1 306-360): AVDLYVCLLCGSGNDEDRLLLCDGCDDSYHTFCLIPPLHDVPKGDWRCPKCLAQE
Text: The details of the preparation, purification, crystallization and determination of the PHDKDM5B (residues 306–360 aa) X-ray structure were previously described (Guo et al., [2011]). The modified pGEX-6p-1 vectors expressed proteins with the N-terminal GST tag, which is removable by cleavage with a 3C protease, enabling the use of non-tagged proteins in our studies. Only the X-ray structure of free PHD1KDM5B was obtained.
To study the binding affinities in vitro or to construct different NMR samples of the complex, H3K4 peptides without modifications (with the ARTKQTARKS sequence or […] sequence) or with some modifications (H3R2me1, R2 monomethylation; H3R2me2s, R2 symmetric dimethylation; H3R2me2a, R2 asymmetric dimethylation; H3K4me1/2/3, K4 mono-, di-, and tri-methylation; H3K9me1/2/3, K9 mono-, di- and tri-methylation; H3 peptide A1G, R2A, T3V, K4A, Q5E, T6V mutants without any modification) were purchased from GL Biochem Ltd. (Shanghai, China), and their purity was confirmed by HPLC and mass spectrometry.
To investigate whether the PHD1KDM5B finger and its mutants interact with unmodified or methylated H3K4 or H3K4mutants, the binding affinities of PHD1KDM5B or its mutants to H3 peptides were studied. An ITC-200 microcalorimeter (GE Healthcare) was used with a buffer containing 20 mmol/L Tris, 150 mmol/L NaCl, and 1% Triton X-100, pH 7.5 at 25°C. The reference titration of small molecules in the buffer was subtracted from the experimental data, and the data were fitted using the Origin 7.0 (OriginLab Corporation) software.

[2] = target: PHD1 finger of KDM5B (residues 306-360) (UniProt Q9UGL1); test: ITC; ITC-200, 20 mmol/L Tris, 150 mmol/L NaCl, 1% Triton X-100, pH 7.5, 25°C
[3] = target: H3K4 (1-10aa) Q5E (Homo sapiens); test: ITC; conditions: domain or fragment; chains chain
[4] = target: H3K4 (1-10aa) K4A (Homo sapiens); test: ITC; conditions: domain or fragment; chains chain
[5] = target: T2, PHD1 finger of KDM5B (residues 306-360) (UniProt Q9UGL1 306-360); test: ITC; ITC-200, 20 mmol/L Tris, 150 mmol/L NaCl, 1% Triton X-100, pH 7.5, 25°C; conditions: both partners purified
T2 construct: 15N- or 13C/15N-labelled (M9 medium) for the NMR experiments; GST removed with 3C protease; also called PHD1_(KDM5B); PHD_(KDM5B); source: recombinant from modified pGEX-6p-1, purified; preparation described in Guo et al., 2011; not shown: GST, N-terminal, cleaved
T2 sequence (looked up): T1 sequence (Q9UGL1 306-360)

[6] = target: T3, KDM5B-PHD1-D322A (Homo sapiens); test: ITC
T3 chain: T1 sequence (Q9UGL1 306-360) with D17A

[7] = target: T4, KDM5B-PHD1-D345A (Homo sapiens); test: ITC
T4 chain: T1 sequence (Q9UGL1 306-360) with D40A

[8] = target: T5, KDM5B-PHD1-L324A (Homo sapiens); test: ITC
T5 chain: T1 sequence (Q9UGL1 306-360) with L19A

[9] = target: T6, KDM5B-PHD1-L309A (Homo sapiens); test: ITC
T6 chain: T1 sequence (Q9UGL1 306-360) with L4A

[10] = target: T7, KDM5B-PHD1-D332A (Homo sapiens); test: ITC
T7 chain: T1 sequence (Q9UGL1 306-360) with D27A

[11] = target: T8, KDM5B-PHD1-Y334A (Homo sapiens); test: ITC
T8 chain: T1 sequence (Q9UGL1 306-360) with Y29A

[12] = target: T9, KDM5B-PHD1-V311A (Homo sapiens); test: ITC
T9 chain: T1 sequence (Q9UGL1 306-360) with V6A

[13] = target: T10, KDM5B-PHD1-S333A (Homo sapiens); test: ITC
T10 chain: T1 sequence (Q9UGL1 306-360) with S28A

[14] = target: T11, PHD1_(KDM5B) L326A mutant (UniProt Q9UGL1 306-360, L326A); test: ITC; ITC-200, 20 mmol/L Tris, 150 mmol/L NaCl, 1% Triton X-100, pH 7.5, 25°C; conditions: both partners purified
T11 construct: also called PHD1 L326A; source: recombinant from modified pGEX-6p-1, site-directed mutagenesis; not shown: GST, N-terminal, cleaved
T11 sequence (looked up): T1 sequence (Q9UGL1 306-360) with L21A

[15] = target: T12, PHD1_(KDM5B) D308A mutant (UniProt Q9UGL1 306-360, D308A); test: as above; conditions: both partners purified
T12 construct: also called PHD1 D308A; source: recombinant from modified pGEX-6p-1, site-directed mutagenesis; not shown: GST, N-terminal, cleaved
T12 sequence (looked up): T1 sequence (Q9UGL1 306-360) with D3A

[16] = target: T13, PHD1_(KDM5B) D328A mutant (UniProt Q9UGL1 306-360, D328A); test: as above; conditions: both partners purified
T13 construct: also called PHD1 D328A; source: recombinant from modified pGEX-6p-1, site-directed mutagenesis; not shown: GST, N-terminal, cleaved
T13 sequence (looked up): T1 sequence (Q9UGL1 306-360) with D23A

[17] = target: T14, PHD1_(KDM5B) Y310A mutant (UniProt Q9UGL1 306-360, Y310A); test: as above; conditions: both partners purified
T14 construct: also called PHD1 Y310A; source: recombinant from modified pGEX-6p-1, site-directed mutagenesis; not shown: GST, N-terminal, cleaved
T14 sequence (looked up): T1 sequence (Q9UGL1 306-360) with Y5A

[18] = target: T15, PHD1_(KDM5B) Y310F mutant (UniProt Q9UGL1 306-360, Y310F); test: as above; conditions: both partners purified
T15 construct: also called PHD1 Y310F; source: recombinant from modified pGEX-6p-1, site-directed mutagenesis; not shown: GST, N-terminal, cleaved
T15 sequence (looked up): T1 sequence (Q9UGL1 306-360) with Y5F

[19] = target: T16, PHD1_(KDM5B) E321A mutant (UniProt Q9UGL1 306-360, E321A); test: as above; conditions: both partners purified
T16 construct: also called PHD1 E321A; source: recombinant from modified pGEX-6p-1, site-directed mutagenesis; not shown: GST, N-terminal, cleaved
T16 sequence (looked up): T1 sequence (Q9UGL1 306-360) with E16A

[20] = ITC-200, 20 mmol/L Tris, 150 mmol/L NaCl, 1% Triton X-100, pH 7.5, 25°C, H3 peptides residues 1–10, means (± s.d.) of at least three experiments
[21] = Table S1, pH 7.5, 25°C, H3 peptides (1-10aa), N.D. means non-detectable

Q: With “H3K4 (1-10aa) R2E: unmodified H3 peptide (1-10aa) R2E mutant (AETKQTARKS; UniProt P68431 2-11, looked up, variant R2E)” as the molecule, how does the KD [1, 20] read?
A: The KD was “too small to detect”.

Q: With C[C@H](N)C(=O)N[C@@H](CCCNC(=N)N)C(=O)N[C@H](C(=O)N[C@@H](C)C(=O)N[C@@H](CCC(N)=O)C(=O)N[C@H](C(=O)N[C@@H](C)C(=O)N[C@@H](CCCNC(=N)N)C(=O)N[C@@H](CCCCN)C(=O)N[C@@H](CO)C(=O)O)[C@@H](C)O)[C@@H](C)O [H3K4 (1-10aa) K4A] as the molecule, how does the Kd [1, 21] read?
A: Its Kd is 15.9 ± 1.2 µM.

Q: How did the Kd [2] turn out when “H3 peptide T3V mutant (from UniProt P68431 2-11)” was run?
A: The Kd was 57.1 µM.

Q: With “H3 peptide T6V mutant (from UniProt P68431 2-11)” as the molecule, how does the Kd [2] read?
A: Its Kd is 61.3 µM.

Q: With CC(C)[C@H](NC(=O)[C@H](CCC(N)=O)NC(=O)[C@H](CCCCN)NC(=O)[C@@H](NC(=O)[C@H](CCCNC(=N)N)NC(=O)[C@H](C)N)[C@@H](C)O)C(=O)N[C@@H](C)C(=O)N[C@@H](CCCNC(=N)N)C(=O)N[C@@H](CCCCN)C(=O)N[C@@H](CO)C(=O)O [H3K4 (1-10aa) T6V] as the molecule, how does the Kd [1, 20] read?
A: Its Kd is 61.3 ± 1.6 µM.

Q: With CC(C)[C@H](NC(=O)[C@H](CCCNC(=N)N)NC(=O)[C@H](C)N)C(=O)N[C@@H](CCCCN)C(=O)N[C@@H](CCC(N)=O)C(=O)N[C@H](C(=O)N[C@@H](C)C(=O)N[C@@H](CCCNC(=N)N)C(=O)N[C@@H](CCCCN)C(=O)N[C@@H](CO)C(=O)O)[C@@H](C)O [H3K4 (1-10aa) T3V] as the molecule, how does the Kd [1, 20] read?
A: Its Kd is 57.1 ± 2.2 µM.

Q: Which Kd [2] does the source give for “H3 peptide A1G mutant (from UniProt P68431 2-11)” here?
A: The Kd was 305 µM.

Q: For “H3K4 (1-10aa) K4E: unmodified H3 peptide (1-10aa) K4E mutant (ARTEQTARKS; UniProt P68431 2-11, looked up, variant K4E)”, which KD [1, 20] is on record?
A: The KD was “non-detectable”.

Q: With C[C@H](N)C(=O)N[C@@H](C)C(=O)N[C@H](C(=O)N[C@@H](CCCCN)C(=O)N[C@@H](CCC(N)=O)C(=O)N[C@H](C(=O)N[C@@H](C)C(=O)N[C@@H](CCCNC(=N)N)C(=O)N[C@@H](CCCCN)C(=O)N[C@@H](CO)C(=O)O)[C@@H](C)O)[C@@H](C)O [H3K4 (1-10aa) R2A] as the molecule, how does the Kd [1, 20] read?
A: The Kd was 370 ± 52.1 µM.

Q: Which Kd [2] does the source give for “H3 peptide R2A mutant (from UniProt P68431 2-11)” here?
A: The Kd was 370 µM.

Q: How did the Kd [1, 21] turn out when C[C@H](N)C(=O)N[C@@H](CCCNC(=N)N)C(=O)N[C@H](C(=O)N[C@@H](CCCCN)C(=O)N[C@@H](CCC(=O)O)C(=O)N[C@H](C(=O)N[C@@H](C)C(=O)N[C@@H](CCCNC(=N)N)C(=O)N[C@@H](CCCCN)C(=O)N[C@@H](CO)C(=O)O)[C@@H](C)O)[C@@H](C)O [H3K4 (1-10aa) Q5E] was run?
A: Its Kd is 21.4 ± 1.7 µM.

Q: Which Kd [1, 20] does the source give for C[C@H](NC(=O)[C@@H](NC(=O)[C@H](CCC(N)=O)NC(=O)[C@H](CCCCN)NC(=O)[C@@H](NC(=O)[C@H](CCCNC(=N)N)NC(=O)CN)[C@@H](C)O)[C@@H](C)O)C(=O)N[C@@H](CCCNC(=N)N)C(=O)N[C@@H](CCCCN)C(=O)N[C@@H](CO)C(=O)O [H3K4 (1-10aa) A1G] here?
A: The Kd was 305 ± 11.7 µM.

B1: PHD1 finger of KDM5B (residues 306-360), Q9UGL1 306-360 (protein)
chain: T1 sequence (Q9UGL1 306-360)
Q: For B1, which Kd [3] is on record?
A: The Kd was 21.4 µM.

Q: And the Kd [4]?
A: The Kd was 15.9 µM.

B2: tri-methylated H3K4me3 peptide (residues 1-10) (peptide)
peptide: ARTKQTARKS
modifications: trimethyl-lysine at K4
notes: histone H3 N-terminal tail, residues 1-10; source: synthetic peptide, bought: GL Biochem Ltd. (Shanghai, China)
Q: With B2 as the molecule, how does the Kd [5] read?
A: Its Kd is 104 µM.

B3: unmodified H3K4 peptide (residues 1-10) (peptide)
peptide: ARTKQTARKS
notes: histone H3 N-terminal tail, residues 1-10; also called H3K4me0; H3K4me0 peptide; source: synthetic peptide, bought: GL Biochem Ltd. (Shanghai, China)
Q: How did the Kd [6] turn out when B3 was run?
A: Its Kd is 10.7 µM.

Q: What about the Kd [7] of the same molecule?
A: Its Kd is 6.7 µM.

Q: What about the Kd [8] of the same molecule?
A: The Kd was 15.3 µM.

Q: And the Kd [9]?
A: The Kd was 8.3 µM.

Q: And the Kd [10]?
A: The Kd was 11.3 µM.

Q: What about the Kd [11] of the same molecule?
A: Its Kd is 12.6 µM.

Q: What about the Kd [12] of the same molecule?
A: The Kd was 8.2 µM.

Q: And the Kd [13]?
A: Its Kd is 12.9 µM.

Q: What about the Kd [14] of the same molecule?
A: The Kd was 14.1 ± 0.8 µM.

Q: What about the Kd [5] of the same molecule?
A: Its Kd is 6.4 µM.

Q: What about the Kd [15] of the same molecule?
A: Its Kd is 41.7 ± 2.2 µM.

Q: What about the Kd [16] of the same molecule?
A: Its Kd is 182 ± 21.9 µM.

Q: And the Kd [17]?
A: Its Kd is 28.1 ± 1.3 µM.

Q: And the Kd [18]?
A: Its Kd is 4.3 ± 0.2 µM.

Q: And the Kd [19]?
A: Its Kd is 75.8 ± 5.7 µM.
